Source: patent US20200255474A1

Target: HA-tagged PHB2 alanine mutant at Ser39 (S39A) (human) (UniProt Q99623)
Assay: anti-HA IP of nuclear extracts of transfected SK-BR-3 cells after 1 µM stERAP, immunoblot

NcoR, O75376 1-2440
reduction rate of binding against WT: 82%
